B1: anti-lysozyme VHH D3-L11, wild type (VHH)
VHH: DVQLVESGGGSVQAGGSLRLSCAASGSTDSIEYMTWFRQAPGKAREGVAALYTHTGNTYYTDSVKGRFTISQDKAKNMAYLRMDSVKSEDTAIYTCGATRKYVPVRFALDQSSYDYWGQGTQVTVSS
notes: anti-hen egg lysozyme VHH D3-L11, 127 amino acids; A SAG tripeptide linker stands between the VHH and the C-terminal 6xHis tag; also called WT; source: ExpiCHO, transient transfection, purified from supernatant (His Mag Sepharose excel); not shown: His6, C-terminal, kept
B2: D3-L11 A79C (VHH)
VHH: DVQLVESGGGSVQAGGSLRLSCAASGSTDSIEYMTWFRQAPGKAREGVAALYTHTGNTYYTDSVKGRFTISQDKAKNMCYLRMDSVKSEDTAIYTCGATRKYVPVRFALDQSSYDYWGQGTQVTVSS
notes: as the VHH chain of Sm1 (D3-L11 wild type, PDB 6JB8) with A79C; SAG tripeptide linker before the C-terminal 6xHis tag; source: ExpiCHO, transient transfection, purified from supernatant (His Mag Sepharose excel); not shown: His6, C-terminal, kept
B3: D3-L11 A79I (VHH)
VHH: DVQLVESGGGSVQAGGSLRLSCAASGSTDSIEYMTWFRQAPGKAREGVAALYTHTGNTYYTDSVKGRFTISQDKAKNMIYLRMDSVKSEDTAIYTCGATRKYVPVRFALDQSSYDYWGQGTQVTVSS
notes: as the VHH chain of Sm1 (D3-L11 wild type, PDB 6JB8) with A79I; SAG tripeptide linker before the C-terminal 6xHis tag; source: ExpiCHO, transient transfection, purified from supernatant (His Mag Sepharose excel); not shown: His6, C-terminal, kept
B4: D3-L11 A79W (VHH)
VHH: DVQLVESGGGSVQAGGSLRLSCAASGSTDSIEYMTWFRQAPGKAREGVAALYTHTGNTYYTDSVKGRFTISQDKAKNMWYLRMDSVKSEDTAIYTCGATRKYVPVRFALDQSSYDYWGQGTQVTVSS
notes: as the VHH chain of Sm1 (D3-L11 wild type, PDB 6JB8) with A79W; SAG tripeptide linker before the C-terminal 6xHis tag; source: ExpiCHO, transient transfection, purified from supernatant (His Mag Sepharose excel); not shown: His6, C-terminal, kept
B5: D3-L11 A79Y (VHH)
VHH: DVQLVESGGGSVQAGGSLRLSCAASGSTDSIEYMTWFRQAPGKAREGVAALYTHTGNTYYTDSVKGRFTISQDKAKNMYYLRMDSVKSEDTAIYTCGATRKYVPVRFALDQSSYDYWGQGTQVTVSS
notes: as the VHH chain of Sm1 (D3-L11 wild type, PDB 6JB8) with A79Y; SAG tripeptide linker before the C-terminal 6xHis tag; source: ExpiCHO, transient transfection, purified from supernatant (His Mag Sepharose excel); not shown: His6, C-terminal, kept
B6: D3-L11 A79T (VHH)
VHH: DVQLVESGGGSVQAGGSLRLSCAASGSTDSIEYMTWFRQAPGKAREGVAALYTHTGNTYYTDSVKGRFTISQDKAKNMTYLRMDSVKSEDTAIYTCGATRKYVPVRFALDQSSYDYWGQGTQVTVSS
notes: as the VHH chain of Sm1 (D3-L11 wild type, PDB 6JB8) with A79T; SAG tripeptide linker before the C-terminal 6xHis tag; source: ExpiCHO, transient transfection, purified from supernatant (His Mag Sepharose excel); not shown: His6, C-terminal, kept
B7: D3-L11 A79L (VHH)
VHH: DVQLVESGGGSVQAGGSLRLSCAASGSTDSIEYMTWFRQAPGKAREGVAALYTHTGNTYYTDSVKGRFTISQDKAKNMLYLRMDSVKSEDTAIYTCGATRKYVPVRFALDQSSYDYWGQGTQVTVSS
notes: as the VHH chain of Sm1 (D3-L11 wild type, PDB 6JB8) with A79L; SAG tripeptide linker before the C-terminal 6xHis tag; source: ExpiCHO, transient transfection, purified from supernatant (His Mag Sepharose excel); not shown: His6, C-terminal, kept
B8: D3-L11 A79S (VHH)
VHH: DVQLVESGGGSVQAGGSLRLSCAASGSTDSIEYMTWFRQAPGKAREGVAALYTHTGNTYYTDSVKGRFTISQDKAKNMSYLRMDSVKSEDTAIYTCGATRKYVPVRFALDQSSYDYWGQGTQVTVSS
notes: as the VHH chain of Sm1 (D3-L11 wild type, PDB 6JB8) with A79S; SAG tripeptide linker before the C-terminal 6xHis tag; source: ExpiCHO, transient transfection, purified from supernatant (His Mag Sepharose excel); not shown: His6, C-terminal, kept
B9: D3-L11 A79N (VHH)
VHH: DVQLVESGGGSVQAGGSLRLSCAASGSTDSIEYMTWFRQAPGKAREGVAALYTHTGNTYYTDSVKGRFTISQDKAKNMNYLRMDSVKSEDTAIYTCGATRKYVPVRFALDQSSYDYWGQGTQVTVSS
notes: as the VHH chain of Sm1 (D3-L11 wild type, PDB 6JB8) with A79N; SAG tripeptide linker before the C-terminal 6xHis tag; source: ExpiCHO, transient transfection, purified from supernatant (His Mag Sepharose excel); not shown: His6, C-terminal, kept
B10: D3-L11 A79V (VHH)
VHH: DVQLVESGGGSVQAGGSLRLSCAASGSTDSIEYMTWFRQAPGKAREGVAALYTHTGNTYYTDSVKGRFTISQDKAKNMVYLRMDSVKSEDTAIYTCGATRKYVPVRFALDQSSYDYWGQGTQVTVSS
notes: as the VHH chain of Sm1 (D3-L11 wild type, PDB 6JB8) with A79V; SAG tripeptide linker before the C-terminal 6xHis tag; source: ExpiCHO, transient transfection, purified from supernatant (His Mag Sepharose excel); not shown: His6, C-terminal, kept
B11: D3-L11 A24L (VHH)
VHH: DVQLVESGGGSVQAGGSLRLSCALSGSTDSIEYMTWFRQAPGKAREGVAALYTHTGNTYYTDSVKGRFTISQDKAKNMAYLRMDSVKSEDTAIYTCGATRKYVPVRFALDQSSYDYWGQGTQVTVSS
notes: as the VHH chain of Sm1 (D3-L11 wild type, PDB 6JB8) with A24L; SAG tripeptide linker before the C-terminal 6xHis tag; source: ExpiCHO, transient transfection, purified from supernatant (His Mag Sepharose excel); not shown: His6, C-terminal, kept
B12: D3-L11 A79H (VHH)
VHH: DVQLVESGGGSVQAGGSLRLSCAASGSTDSIEYMTWFRQAPGKAREGVAALYTHTGNTYYTDSVKGRFTISQDKAKNMHYLRMDSVKSEDTAIYTCGATRKYVPVRFALDQSSYDYWGQGTQVTVSS
notes: as the VHH chain of Sm1 (D3-L11 wild type, PDB 6JB8) with A79H; SAG tripeptide linker before the C-terminal 6xHis tag; source: ExpiCHO, transient transfection, purified from supernatant (His Mag Sepharose excel); not shown: His6, C-terminal, kept
B13: D3-L11 A79M (VHH)
VHH: DVQLVESGGGSVQAGGSLRLSCAASGSTDSIEYMTWFRQAPGKAREGVAALYTHTGNTYYTDSVKGRFTISQDKAKNMMYLRMDSVKSEDTAIYTCGATRKYVPVRFALDQSSYDYWGQGTQVTVSS
notes: as the VHH chain of Sm1 (D3-L11 wild type, PDB 6JB8) with A79M; SAG tripeptide linker before the C-terminal 6xHis tag; source: ExpiCHO, transient transfection, purified from supernatant (His Mag Sepharose excel); not shown: His6, C-terminal, kept
B14: D3-L11 A79Q (VHH)
VHH: DVQLVESGGGSVQAGGSLRLSCAASGSTDSIEYMTWFRQAPGKAREGVAALYTHTGNTYYTDSVKGRFTISQDKAKNMQYLRMDSVKSEDTAIYTCGATRKYVPVRFALDQSSYDYWGQGTQVTVSS
notes: as the VHH chain of Sm1 (D3-L11 wild type, PDB 6JB8) with A79Q; SAG tripeptide linker before the C-terminal 6xHis tag; source: ExpiCHO, transient transfection, purified from supernatant (His Mag Sepharose excel); not shown: His6, C-terminal, kept
B15: D3-L11 A79R (VHH)
VHH: DVQLVESGGGSVQAGGSLRLSCAASGSTDSIEYMTWFRQAPGKAREGVAALYTHTGNTYYTDSVKGRFTISQDKAKNMRYLRMDSVKSEDTAIYTCGATRKYVPVRFALDQSSYDYWGQGTQVTVSS
notes: as the VHH chain of Sm1 (D3-L11 wild type, PDB 6JB8) with A79R; SAG tripeptide linker before the C-terminal 6xHis tag; source: ExpiCHO, transient transfection, purified from supernatant (His Mag Sepharose excel); not shown: His6, C-terminal, kept

The binders below were run against T1, hen egg lysozyme (Gallus gallus (hen egg white), UniProt P00698) (assay: SPR; Biacore T200; lysozyme immobilised on Sensor Chip CM5 by amine coupling (200 RU); VHH injected 300 s, dissociation 600 s in PBST (PBS, 0.005% Tween 20); 1:1 binding model; duplicate). Conditions: both partners purified.
T1 construct: hen egg lysozyme (HEL), the antigen of D3-L11; also in PDB 6JB8; The supplier is named for the ELISA only; also called HEL; antigen lysozyme; source: bought: Sigma-Aldrich, Cat No. L6876
T1 sequence (P00698 19-147): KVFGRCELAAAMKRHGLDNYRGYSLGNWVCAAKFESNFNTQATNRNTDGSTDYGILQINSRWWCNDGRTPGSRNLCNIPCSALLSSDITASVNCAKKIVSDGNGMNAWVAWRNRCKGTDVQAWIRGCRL
A Kd of 3.17 ± 0.19 pM was found for B1 in this work. A Kd of 3.74 ± 0.03 pM was found for B2 in this work. A Kd of 4.92 ± 0.12 pM was found for B3 in this work. A Kd of 14.9 ± 0.1 pM was found for B4 in this work. A Kd of 5.57 ± 0.04 pM was found for B5 in this work. A Kd of 13.1 ± 0.4 pM was found for B6 in this work. A Kd of 6.54 ± 0.03 pM was found for B7 in this work. A Kd of 11.7 pM was found for B8 in this work. A Kd of 8.04 ± 0.07 pM was found for B9 in this work. A Kd of 3.66 ± 0.13 pM was found for B10 in this work. A Kd of 43.6 ± 1.3 pM was found for B11 in this work. A Kd of 23.1 pM was found for B12 in this work. A Kd of 6.91 ± 0.1 pM was found for B13 in this work. A Kd of 7.2 ± 0.03 pM was found for B14 in this work. A Kd of 26 ± 0.1 pM was found for B15 in this work.

Reference: publication PMC10039853, “Increasing the melting temperature of VHH with the in silico free energy score” (Scientific Reports, 2023)
